Measured values: the RNAGym collection of RNA variant scans (doi:10.7554/elife.80360)

B1: HDV Ribozyme (parent)
chain: GGCCGGCAUGGUCCCAGCCUCCUCGCUGGCGCCGGCUGGGCAACAUUCCGAGGGGACCGUCCCCUCGGUAAUGGCGAAUGGGACCCA

Variants of: B1
Assay: self-cleavage, relative activity (ratio to wild type); higher = more cleavage; co-transcriptional

Variant | self-cleavage
G40C A42C | 0.111
G59U U69C | 0.852
G40A A87C | 0.981
G2A C30G | 0.0432
C3U G53C | 0.688
U12G A83G | 0.89
C36A C84G | 0.208
G2A C21G | 0.0528
U27C G81A | 0.374
A8C C41A | 0.798
G6U A83G | 0.17
C15G G40C | 0.271
U9C C30U | 0.636
C19G C26G | 0
G28C C86U | 0
A56G C63G | 0.59
A16U C33U | 0.684
U27G G52U | 0.872
G2A C41A | 0.168
C22A U23G | 0
C62A A70C | 0.886

Variant | self-cleavage
C61G G76U | 1.16
C58U A78G | 0.77
G2U C84A | 0.0219
A16G C85A | 1.32
U46G A56U | 0.917
G1A A87U | 0.157
U9G C14A | 0.831
G34C C85G | 0.125
U47A C62G | 0.54
G2C C3G | 0
G6A G67U | 0.692
C58G U60G | 0.532
G28A G38A | 0.0647
G31A C57G | 0.529
C32U G74C | 0.224
C44U C85G | 0.673
G40U C63G | 0.348
C7G G25C | 0
C36G A78G | 0.0639
U37C C63U | 1.11
A42C G53C | 0.297

Variant | self-cleavage
C4A G11U | 0
G35U A77G | 0.305
C44A G81A | 0.125
C13G G76C | 0.217
G17U U72C | 0.142
C66G U69C | 0.898
G68U U79G | 0.374
C36G G73A | 0.0723
C13U C49A | 0.727
G59C A70G | 1.06
G31A C63A | 0.379
A8U A83U | 0.26
U12A G25A | 0.108
C19U C86G | 0.116
G52U C63A | 0.806
C21A G35U | 0.0744
G29A G52U | 0.153
U23A G52A | 1.02
C18U C21A | 0.115
C21G C63G | 0.0378
A8C G11U | 0.17

Variant | self-cleavage
G10U C58A | 0.873
U12G A42C | 0.217
A45G U65C | 1.01
C4G A8U | 0.214
C3A G55A | 0.705
C61U A78U | 0.326
C36G G68A | 0.233
A51U C85G | 0.831
G29C C33G | 0.185
G11C U72C | 0.119
G34U A42G | 0.0449
C4A A78U | 0.0437
C15U G80C | 0.177
G1U G40C | 0.491
C14G C48A | 0.723
A42U U72A | 0.511
U27A U79A | 0.612
C26G A70C | 0.957
G17U A87U | 0.548
C64G U72G | 0.745
C24U G40A | 0.701
